Results reported in PMC2148073.

Experiments:
[1] = target: native syntaxin 1A from PC12 cells (rat (endogenous in PC12)) (UniProt P32851)
[2] = target: native syntaxin 1A from PC12 cells (rat (endogenous in PC12)) (UniProt P32851); remark: listed apart in the source

Chain of UniProt P32851 (P32851 whole entry): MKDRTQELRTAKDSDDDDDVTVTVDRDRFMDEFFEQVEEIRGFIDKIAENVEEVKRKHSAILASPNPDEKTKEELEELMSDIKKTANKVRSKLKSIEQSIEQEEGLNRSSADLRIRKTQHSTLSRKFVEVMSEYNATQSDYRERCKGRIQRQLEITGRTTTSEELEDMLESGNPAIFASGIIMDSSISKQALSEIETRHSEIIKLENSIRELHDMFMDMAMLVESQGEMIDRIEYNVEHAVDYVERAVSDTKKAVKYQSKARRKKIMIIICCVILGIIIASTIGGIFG

- inhibition of Ca2+-triggered [3H]-NE release from cracked PC12 cells by 10–20 µM GST-fusion peptide present during priming and triggering; pair blocked: endogenous Kv2.1 with syntaxin [1]: 60%
- half-maximal inhibition of Ca2+-triggered [3H]-NE release from cracked PC12 cells (dose response of GST-Kv2.1-C1); pair blocked: endogenous Kv2.1 with syntaxin [2]: 2 µM
- inhibition of Ca2+-triggered [3H]-NE release from cracked PC12 cells at increasing concentrations of GST-Kv2.1-C1 (from 10 nM; saturation at 5 µM); pair blocked: endogenous Kv2.1 with syntaxin [2]: 57%
Substance: GST-fused Kv2.1-C1 protein (domain or fragment)
